Laboratory results reported in article doi:10.1101/2023.07.20.548338.

Target: GLS1 (endogenous; both KGA and GAC, not told apart) (UniProt D3Z7P3)
Experiment: IP of endogenous GLS1, PDZD8 blot
Details: reference: wild-type PDZD8, glucose-starved cells; sites T527

binding against the reference: weaker
Substance: PDZD8 (from UniProt Q8NEN9) PDZD8-T527A, glucose-starved cells
